The target in series [1] is T1, IRF2 (mouse, UniProt P23906 1-349).
T1 sequence: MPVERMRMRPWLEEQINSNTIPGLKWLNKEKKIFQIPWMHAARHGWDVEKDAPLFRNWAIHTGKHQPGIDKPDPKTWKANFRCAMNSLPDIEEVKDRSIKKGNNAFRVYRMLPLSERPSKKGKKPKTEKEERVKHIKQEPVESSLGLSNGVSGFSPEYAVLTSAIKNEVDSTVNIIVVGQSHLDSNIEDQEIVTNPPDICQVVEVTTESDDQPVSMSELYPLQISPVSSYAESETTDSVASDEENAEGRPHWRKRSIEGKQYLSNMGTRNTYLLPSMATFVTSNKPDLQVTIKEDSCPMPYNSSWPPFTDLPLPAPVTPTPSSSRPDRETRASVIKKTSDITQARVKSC
As to the kind of experiment: EMSA.

Series [2] concerns the target T2, IRF1 (mouse, UniProt P15314 1-329).
T2 sequence: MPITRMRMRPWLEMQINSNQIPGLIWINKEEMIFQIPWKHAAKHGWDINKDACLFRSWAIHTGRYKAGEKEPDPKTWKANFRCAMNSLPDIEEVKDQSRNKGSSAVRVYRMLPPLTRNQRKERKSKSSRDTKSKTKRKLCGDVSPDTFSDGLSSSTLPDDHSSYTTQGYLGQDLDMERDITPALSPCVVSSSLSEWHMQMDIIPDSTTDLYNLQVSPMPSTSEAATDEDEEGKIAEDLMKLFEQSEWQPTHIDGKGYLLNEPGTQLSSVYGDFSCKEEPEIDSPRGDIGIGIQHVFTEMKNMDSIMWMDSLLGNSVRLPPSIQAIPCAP
As to the kind of experiment: EMSA. For orientation: In EMSA bound probe runs differently from free probe, usually more slowly.

The target in series [3] is SPOP (mouse, UniProt Q6ZWS8 28-329). The experiment in a line: EMSA.
Series [4] has as its target T3, IRF1;IRF2 (mouse;mouse, UniProt P15314;P23906 1-329;1-349, |).
T3 sequence 1: T2 sequence
T3 sequence 2: T1 sequence
The experiment in a line: EMSA.

For series [5], the target named is IRF1;SPOP (mouse;mouse, UniProt P15314;Q6ZWS8 1-329;28-329, |). As to the kind of experiment: EMSA.
In series [6] the target is T4, recombinant full-length mouse IRF1 (mouse, UniProt P15314 1-329).
T4 sequence (looked up): T2 sequence
The experiment in a line: native gel or EMSA.

B1: Gbp2 promoter probe, single IRF motif (dsDNA)
DNA 1: CAGTGAAAGTGAAACTAAAAAGCAC
DNA 2: GTGCTTTTTAGTTTCACTTTCACTG
In the case of B1, the binding result in series [1] was “binds”; in series [2], “binds”; in series [3], “no binding”; in series [4] it was “binds”; in series [5], “binds”.

B2: recombinant mouse SPOP (aa28-329) (domain or fragment, UniProt Q6ZWS8 28-329, looked up)
chain: KVVKFSYMWTINNFSFCREEMGEVIKSSTFSSGANDKLKWCLRVNPKGLDEESKDYLSLYLLLVSCPKSEVRAKFKFSILNAKGEETKAMESQRAYRFVQGKDWGFKKFIRRDFLLDEANGLLPDDKLTLFCEVSVVQDSVNISGQNTMNMVKVPECRLADELGGLWENSRFTDCCLCVAGQEFQAHKAILAARSPVFSAMFEHEMEESKKNRVEINDVEPEVFKEMMCFIYTGKAPNLDKMADDLLAAADKYALERLKVMCEDALCSNLSVENAAEILILADLHSADQLKTQAVDFINYHA
Take B2: in series [6], the binding result is recorded as “binds”.

B3: Gbp2 probe, GAAA core and 5'-flanking AA mutated (dsDNA)
DNA 1: CAGTGCCCGTGCCCCTACCCAGCAC
DNA 2: GTGCTGGGTAGGGGCACGGGCACTG
For B3, the binding result in series [1] and in series [2] was “no binding” in each case.

B4: DNA with a single AAA core (dsDNA)
DNA 1: CAGTGAAAGTGCCCCTACCCAGCAC
DNA 2: GTGCTGGGTAGGGGCACTTTCACTG
On to B4, for which, in series [2], the binding result is on record as “no binding”.

The record behind these values is article doi:10.1101/2025.09.23.678148 (bioRxiv, 2025).
